The nanobody polyreactivity screen of Harvey et al. (2022)

test: yeast display, Sf9 membrane polyspecificity reagent, FACS + sequencing; frameworks hold sequencing errors
How it was run: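 Galactose-induced (36–48 hours) yeast carrying a synthetic nanobody display library were exposed to 10% biotinylated, detergent-solubilized Sf9 membrane reagent at 4 °C for 1 hour. FACS followed streptavidin microbead enrichment, using low and high (top ~1%) gates for expression (anti-HA) and reagent binding (streptavidin). Colony PCR, MiSeq 2 × 250 sequencing and CDR-length filtering followed. Labels for polyreactivity reflect the gate of origin.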

| Sequence | polyreactivity (PSR sort gate) |
| --- | --- |
| QVQLVESGGGLVQAGGSLRLSCAASGRTLAPYAMGWYRQAPGKERELVAISTIGGSTYYADSVKGRFTISRDNAKNTVFLQMNSLKPEDTAVYYCNADATDSYPEKDEHDSWGQGTQVTVSS | low polyreactivity |
| QVQLVESGGGLVQAGGSLRLSCAASGRTLARNAMGWDIQGPGKERELVASINGRTTRTYYADSVKGRFTISRDNAKNTVYLQMNSLKPEDTAVYYCAAERKNKYDYWGQGTQVTVSS | high polyreactivity |
| QVQLVESGGGLVQAGGSLRLSCAASGRTLASNAMGWYRQAPGKERELVAAINRGGSTYYADSVKGRFTISRDNAKNTVYLQMNSLKPEDTAVYSCAVDRYRYPFDYWGQGTQVTVSS | low polyreactivity |
| QVQLVESGGGLVQAGGSLRLSCAASGRTLFPNVMGWYRQAPRQERELFAAITTIGGSTYYADSVKGRITISRDNAKNTVFLQMNSLKPEDTEVYYCNARYRGRGLKFGYWGQGTQVTVSS | high polyreactivity |
| QVQLVESGGGLVQAGGSLRLSCAASGRTLFYYTMGWYRQAPGKERELVAAISSGDSTNYADSVKGRFTISRDNAKNTVYLQMNSLQPEDTAVYYCATQYLLDYKKTYRTYYSPYDYWGQGTQVTVSS | low polyreactivity |
| QVQLVESGGGLVQAGGSLRLSCAASGRTLGGNAMGWYRQAPGKERELVAAITNSASTYADSVKGRFTISRDNAKNSVYLQMNSLKPEDTAVYYCNAPVPSDQHGDYWGQGTQVTVSS | low polyreactivity |
| QVQLVESGGGLVQAGGSLRLSCAASGRTLGGYAMGWYRQAPGKERELVASITARGGSTYYADSVKGRFTISRDNAKNTVYLQMNSLKPEDTAVYYCNKRTRRTYDYWGQGTQVTVSS | high polyreactivity |
| QVQLVESGGGLVQAGGSLRLSCAASGRTLGGYAMGWYRQAPRKERELVAVITWNGGSTYADSVKGRFTISRDNAKNTVYLQMNSLKPVDTAVYYCAARQAYYAAFRTRYGYWGQGTQVTVSS | high polyreactivity |
| QVQLVESGGGLVQAGGSLRLSCAASGRTLGGYTMGWYRQAPGKERELVAAITTGGSTNYADSVKGRFTISRDNAKNTVYLQMNSLKPEDTAVYYCATELVFDKRYWYDYWGQGTQVTVSS | low polyreactivity |
| QVQLVESGGGLVQAGGSLRLSCAASGRTLGIYAMGWYRQAPGKERELVADISRDSSTYYADSVKGRFTISRDNAKNTVYLQKNSLKPEDTAVYYCNADQTPRDVTDWWYDYDYWGQGSQVTVSS | low polyreactivity |
| QVQLVESGGGLVQAGGSLRLSCAASGRTLGKNAMGWYRQAPGKEREFVAAISRSGSRTYYADSVKGRFTISRDNEKYTVYLQMNSLKPEDTAVYYCAADGSGHSQRYDYWGQGTQVTVSS | high polyreactivity |
| QVQLVESGGGLVQAGGSLRLSCAASGRTLGKYAMGWYRQAPGKERELVAAIRWTGGNTYYADSVKGRFTISRDNAKNTVYLQMNSLKPEDTAVYYCAAAYWNDWSQYDYWGQGTQVTVSS | high polyreactivity |
| QVQLVESGGGLVQAGGSLRLSCAASGRTLGRNAMGWYRHAPGKERELVARISYSGGRTYYADSVKGRFTISRDNAKNTVYLQMNSLKPEDTAVYYCATLGIVHQYDYWGQGTQVTVSS | low polyreactivity |
| QVQLVESGGGLVQAGGSLRLSCAASGRTLGTNAMGWYRQAPGKERELVAAITRNGGSTYYADSVKGRFTISRDNAKNTVYLQMNSLKPEDTAVYYCAARYFHSVGGWPVSYRYNYWGQGTQVTVSS | high polyreactivity |
| QVQLVESGGGLVQAGGSLRLSCAASGRTLGVNAMGWYRQAPGKERELVAAISTRGTTTNYADSVKGRFTISRDNAKNTVYLQMNSLKPEDTAVYYCATRTYRTYPRYDYWGQGTQVTVSS | high polyreactivity |
| QVQLVESGGGLVQAGGSLRLSCAASGRTLGYNAVGWYRQAPGKERELVAAINGGDSTYADSVKGRFTISRDNAKNTVYLQMNSLKPEDTAVYYCNALRGGPFRWHGYYYWGQGTQVTVSS | low polyreactivity |
| QVQLVESGGGLVQAGGSLRLSCAASGRTLHDYTMGWYRQAPGKERELVAGITSGGRTNYADSVKGRFTISRDNAKNTVYLQMNSLKPEDTAVYYCAAAWTWWRLYADDYWGQGTQVTVSS | high polyreactivity |
| QVQLVESGGGLVQAGGSLRLSCAASGRTLIHYAMGWYRQAPGKERELVATINIGGRTYADSVKGRFTISRDNAKNTVYLQMNSLKPEDTAVYYCAADHRYSARRSVPTLYDYWGQGTQVTVSS | low polyreactivity |
| QVQLVESGGGLVQAGGSLRLSCAASGRTLKYNAMGWYIQAPGKERELVAGISWSGTRTYYADSVKGRFTISRDIAKNTVYLQMNSLKPEETAVYYCAAYSYLYRSSGFRYNYWGQGTPVTVSS | high polyreactivity |
| QVQLVESGGGLVQAGGSLRLSCAASGRTLLQYTKGWYRQAPGKERELGAAISWSGGRTYYADSVKGRFTISRDNAKNTVYLQMNSLKPEDTAVYYCAARGLKSQYYGAKHEYGYWGLGTQVTVSS | high polyreactivity |

| Sequence | polyreactivity (PSR sort gate) |
| --- | --- |
| QVQLVESGGGLVQAGGSLRLSCAASGRTLNRNAMGWYRQAPGKERELVAAISRRGGSTNYADSVKGRFTISRDNAKNTVYLQMNSLKPEDTAVYYCARVTTVYDGRGFVDVKRGYWGQGTQVTVSS | high polyreactivity |
| QVQLVESGGGLVQAGGSLRLSCAASGRTLPEYVMGWYRQAPGKERELVAAITTAGSTNYADSVKGRFTISRDNAKNTVYLQMNSLKPEDTAVYYCNAYPASRGPGNPLDDYWGQGTQVTVSS | low polyreactivity |
| QVQLVESGGGLVQAGGSLRLSCAASGRTLPKYVMGWYRQAPGKERELVAAISSSGDSTYYADSVKGRFTISRDNAKNTVYLQMNSLKPEDTAVYYCGKYDLNTYGYWGQGTQVTVSS | low polyreactivity |
| QVQLVESGGGLVQAGGSLRLSCAASGRTLPSNTMGWYRQAPGTERELVAAISKNGGSTYYADSVKGRFTISRDNAMNTVYLQMNSLKPEDTAVYYCNARYLYGRYRSPLDDYWGQGTQVTVSS | high polyreactivity |
| QVQLVESGGGLVQAGGSLRLSCAASGRTLPYYMRWYRQAPGKERELVAAITNGDSTYYADSVKGRFTISRDNAQNTVYLQMNSLKPEDTAVYDCAARQKVPPQYWGQGTQVTVSS | high polyreactivity |
| QVQLVESGGGLVQAGGSLRLSCAASGRTLQGYAMGWYRQEPGKERELVAAISRGGGSTYADSVKGRFTISRDNAKNTVYLQMNSLKPEDTAVYYCNKKSYYRYYWGQGTQVTVSS | high polyreactivity |
| QVQLVESGGGLVQAGGSLRLSCAASGRTLQIYVMGWYRQAPGKERELVASITGRGGSTYYADSVKGRFTISRDTAKNTVYLQMNSLKPEDTAVYYFARRYYRLDYWGQGTQVTVSS | high polyreactivity |
| QVQLVESGGGLVQAGGSLRLSCAASGRTLRAYAMGWYRQAPGKERELVAAITWSGGSTYYADSVKGRFTISRDTAKNTVYLQMNSLKPEDTAVYYCNARSYPDLYDYWGQGTQVTVSS | low polyreactivity |
| QVQLVESGGGLVQAGGSLRLSCAASGRTLRGYAMGWYRQAPGKERELVARITGSGGSTYADSVKGRFTISRDNAKNTVYLQMNSLKPEDTAVYYCAAGYSIYYYYAYTISRVSYDYWGQGTQVTVSS | high polyreactivity |
| QVQLVESGGGLVQAGGSLRLSCAASGRTLRINAMGWYRQAPGKERELVAAISRSGGRTYYADSVKGRFTISRDNAKNTVYLQRNSLKPEDTAVYYCATGGVAYNYGWGQYYYWGQGTQVTVSS | high polyreactivity |
| QVQLVESGGGLVQAGGSLRLSCAASGRTLRIYAMGWYRPAPGNERELVAAITGSGGSTDYADSVKGRFTISRDNAKNTVYLQMNILKPEDTAVYYCNAGKTIDYRDGVGYDHWGQGTQVTVSS | low polyreactivity |
| QVQLVESGGGLVQAGGSLRLSCAASGRTLRLYAMGWYRQAPGKERELVAAISSRGRTYYADSVKGRFTISRDNAKNTVYLQMNSLKPEDTAVYYCAVVVYQGFRSKYYYWGQGTQVTVSS | high polyreactivity |
| QVQLVESGGGLVQAGGSLRLSCAASGRTLRRYAMGWYRQAPGKERELVADISWRGTSTNYADSVKGRFTISRDNAKNTVYLQMNSLKPEDTAVYYCAAKQTYTRLHYLGPSVWDNYDYWGQGTQVTVSS | high polyreactivity |
| QVQLVESGGGLVQAGGSLRLSCAASGRTLRYYAMGWYRQAPGKERELVATISRAGRTNYADSVKGRFTISRDNAKNTVYLQMNSLKPEDTAVYYCAAGRVVYSYSDNYDYWGQGTQVTVSS | high polyreactivity |
| QVQLVESGGGLVQAGGSLRLSCAASGRTLRYYAMGWYRQAPGKERELVATITGSGGSTYYADSVKGRFTISRDNAKNTVYLQMNSLKPEDTAVYYCNARKVRYPYRWYDYWGQGTQVTVSS | high polyreactivity |
| QVQLVESGGGLVQAGGSLRLSCAASGRTLSANAMGWYRQAPGKERELVATISTRGGRTYYADSVKGRFTISRDNAKNTVYLQMNSLKPEDTAVYYCAVTIRAKYTLKEDYWGQGTQVNVSS | low polyreactivity |
| QVQLVESGGGLVQAGGSLRLSCAASGRTLSFYAMGWYRQAPGKERELVAAISRRGGSTYYADSVKGRFTISRDNAKNTVYLQMNSLKPEDTAVYYCAARRWYPYKNYDYWGQGTQVTVSS | high polyreactivity |
| QVQLVESGGGLVQAGGSLRLSCAASGRTLSGNAMGWYRQAPGKERELVASISTSTDGTYYADSVKGRFTISRDNAKNTVYLQMNSLKPEDTAVYYCTTTTYHWYYYRWEIFDYWGQGTQVTVSS | low polyreactivity |
| QVQLVESGGGLVQAGGSLRLSCAASGRTLSVYAMGWYRQAPGKERELVAAITKSGGSTYYADSVKGRFTISRDNAKNTVYLQMNSLKPEDTAVYYCAAEGDWRGYALYNYWGQGTQVTVSS | low polyreactivity |
| QVQLVESGGGLVQAGGSLRLSCAASGRTLSWYAMGWYRQAPGKEREFVAAITSSGASTYYADSVKGRFTISRDNAKNTVYLQMNSLKPEDTAVYYCAAEAVYVSSWYDEYYYFRYDYWGQGTQVTVSS | high polyreactivity |
